{"source": "patent US7629443", "key": {"[1]": {"biological_target": "RBD-Fc (SARS-CoV; human) (UniProt P59594)", "test": "competitive ELISA on coated RBD-Fc; competitor: biotinylated 10E7"}, "[2]": {"biological_target": "RBD-Fc (SARS-CoV; human) (UniProt P59594)", "test": "competitive ELISA on coated RBD-Fc; competitor: biotinylated 33G4"}, "[3]": {"biological_target": "RBD-Fc (SARS-CoV; human) (UniProt P59594)", "test": "competitive ELISA on coated RBD-Fc; competitor: biotinylated 11E12"}, "[4]": {"biological_target": "SARS-CoV S protein on SARS pseudovirus (SARS-CoV) (UniProt P59594)", "test": "cell-based or functional assay"}, "[5]": {"biological_target": "DTT-reduced S1-C9 (SARS-CoV) (UniProt P59594)", "test": "ELISA, antigen coated 1 µg/ml, mAb 10 µg/ml"}, "[6]": {"biological_target": "S1-C9 (SARS-CoV) (UniProt P59594)", "test": "ELISA, antigen coated 1 µg/ml, mAb 10 µg/ml"}, "[7]": {"biological_target": "RBD-Fc (SARS-CoV; human) (UniProt P59594)", "test": "ELISA, antigen coated 1 µg/ml, mAb 10 µg/ml"}, "[8]": {"biological_target": "DTT-reduced RBD-Fc (SARS-CoV; human) (UniProt P59594)", "test": "ELISA, antigen coated 1 µg/ml, mAb 10 µg/ml"}, "[9]": {"biological_target": "RBD-Fc (SARS-CoV; human) (UniProt P59594)", "test": "competitive ELISA on coated RBD-Fc; competitor: biotinylated 17H9"}, "[10]": {"biological_target": "RBD-Fc (SARS-CoV; human) (UniProt P59594)", "test": "competitive ELISA on coated RBD-Fc; competitor: biotinylated 45B5"}}, "data": [{"substance": "4D5 (antibody)", "values": [{"measurement": "% inhibition", "setting": "[1]", "value": 13, "unit": "%"}, {"measurement": "% inhibition", "setting": "[2]", "value": -11.1, "unit": "%"}, {"measurement": "% inhibition", "setting": "[3]", "value": 10.6, "unit": "%"}, {"measurement": "ND50, neutralization of SARS pseudovirus infection of 293T/ACE2 cells", "setting": "[4]", "value": "> 100", "unit": "µg/mL"}, {"measurement": "reactivity (absorbance at 450 nm)", "setting": "[5]", "value": 0.94}, {"measurement": "reactivity (absorbance at 450 nm)", "setting": "[6]", "value": 0.65}, {"measurement": "reactivity (absorbance at 450 nm)", "setting": "[7]", "value": 0.88}, {"measurement": "reactivity (absorbance at 450 nm)", "setting": "[8]", "value": 1.36}, {"measurement": "% inhibition", "setting": "[9]", "value": -10.5, "unit": "%"}, {"measurement": "% inhibition", "setting": "[10]", "value": 1, "unit": "%"}]}]}
